Test results published in the Human Domainome abundance scans (Beltran et al. 2025).
± gives the uncertainty stated by the source.

B1: Transcription elongation factor A N-terminal and central domain-containing protein, residues 30 to 77; numbered along this chain, Q8N8B7 (parent)
chain: LTELETIYVTKEHLQETDVVRAVYRVLKNCPSVALKKKAKCLLSKWKA

Variants of: B1
Experiment: abundance fitness (aPCA) (normalised: wild type 0, dead -1); higher = more abundant; growth selection in yeast, the domain comes from the species named
Conditions: Homo sapiens

Variant	abundance fitness
LTELETIYVTKEHLQETDVVRAVYCVLKNCPSVALKKKAKCLLSKWKA [R25C]	-0.92 ± 0.25
LTELETIYVTKEHLQETDVVRAVYAVLKNCPSVALKKKAKCLLSKWKA [R25A]	-0.326 ± 0.087
LTELETIYVTKEHLQETDVVRAVYDVLKNCPSVALKKKAKCLLSKWKA [R25D]	-0.443 ± 0.15
LTELETIYVTKEHLQETDVVRAVYEVLKNCPSVALKKKAKCLLSKWKA [R25E]	-0.743 ± 0.15
LTELETIYVTKEHLQETDVVRGVYRVLKNCPSVALKKKAKCLLSKWKA [A22G]	-0.046 ± 0.066
LTELETIYVTKEHLQETDVVRQVYRVLKNCPSVALKKKAKCLLSKWKA [A22Q]	-0.082 ± 0.11
LTELETIYVTKEHLQETDVVRKVYRVLKNCPSVALKKKAKCLLSKWKA [A22K]	0.082 ± 0.11
LTELETIYVTKEHLQETDVVRNVYRVLKNCPSVALKKKAKCLLSKWKA [A22N]	-0.099 ± 0.13
LTELETIYVTKEHLQETDVVRPVYRVLKNCPSVALKKKAKCLLSKWKA [A22P]	-0.143 ± 0.096
LTELETIYVTKEHLQETDVVRDVYRVLKNCPSVALKKKAKCLLSKWKA [A22D]	-0.209 ± 0.095
LTELETIYVTKEHLQETDVVRVVYRVLKNCPSVALKKKAKCLLSKWKA [A22V]	-0.37 ± 0.079
LTELETIYVTKEHLQETDVVRRVYRVLKNCPSVALKKKAKCLLSKWKA [A22R]	0.277 ± 0.066
LTELETIYVTKEHLQETDVVRWVYRVLKNCPSVALKKKAKCLLSKWKA [A22W]	0.256 ± 0.076
LTELETIYVTKEHLQETDVVRIVYRVLKNCPSVALKKKAKCLLSKWKA [A22I]	-0.419 ± 0.2
LTELETIYVTKEHLQETDVVREVYRVLKNCPSVALKKKAKCLLSKWKA [A22E]	-0.328 ± 0.09
LTELETIYVTKEHLQETDVVRYVYRVLKNCPSVALKKKAKCLLSKWKA [A22Y]	-0.074 ± 0.11
LTELETIYVTKEHLQETDVVRHVYRVLKNCPSVALKKKAKCLLSKWKA [A22H]	-0.328 ± 0.15
LTELETIYVTKEHLQETDVVRMVYRVLKNCPSVALKKKAKCLLSKWKA [A22M]	-0.053 ± 0.1
LTELETIYVTKEHLQETDVVRLVYRVLKNCPSVALKKKAKCLLSKWKA [A22L]	-0.119 ± 0.074
LTELETIYVTKEHLQETDVVRSVYRVLKNCPSVALKKKAKCLLSKWKA [A22S]	-0.007 ± 0.09
LTELETIYVTKEHLQETDVVRFVYRVLKNCPSVALKKKAKCLLSKWKA [A22F]	-0.308 ± 0.13
LTELETIYVTKEHLQETDVVRAAYRVLKNCPSVALKKKAKCLLSKWKA [V23A]	-0.453 ± 0.091
LTELETIYVTKEHLQETDVVRAIYRVLKNCPSVALKKKAKCLLSKWKA [V23I]	0.189 ± 0.091
LTELETIYVTKEHLQETDVVRASYRVLKNCPSVALKKKAKCLLSKWKA [V23S]	-0.54 ± 0.11
LTELETIYVTKEHLQETDVVRAEYRVLKNCPSVALKKKAKCLLSKWKA [V23E]	-0.584 ± 0.11
LTELETIYVTKEHLQETDVVRAFYRVLKNCPSVALKKKAKCLLSKWKA [V23F]	-0.021 ± 0.27
LTELETIYVTKEHLQETDVVRAQYRVLKNCPSVALKKKAKCLLSKWKA [V23Q]	-0.901 ± 0.16

Variant	abundance fitness
LTELETIYVTKEHLQETDVVRAWYRVLKNCPSVALKKKAKCLLSKWKA [V23W]	-0.009 ± 0.1
LTELETIYVTKEHLQETDVVRADYRVLKNCPSVALKKKAKCLLSKWKA [V23D]	-0.578 ± 0.16
LTELETIYVTKEHLQETDVVRATYRVLKNCPSVALKKKAKCLLSKWKA [V23T]	-0.122 ± 0.11
LTELETIYVTKEHLQETDVVRARYRVLKNCPSVALKKKAKCLLSKWKA [V23R]	-0.426 ± 0.073
LTELETIYVTKEHLQETDVVRAKYRVLKNCPSVALKKKAKCLLSKWKA [V23K]	-0.573 ± 0.1
LTELETIYVTKEHLQETDVVRALYRVLKNCPSVALKKKAKCLLSKWKA [V23L]	0.041 ± 0.095
LTELETIYVTKEHLQETDVVRAHYRVLKNCPSVALKKKAKCLLSKWKA [V23H]	-0.81 ± 0.21
LTELETIYVTKEHLQETDVVRAGYRVLKNCPSVALKKKAKCLLSKWKA [V23G]	-0.72 ± 0.08
LTELETIYVTKEHLQETDVVRANYRVLKNCPSVALKKKAKCLLSKWKA [V23N]	-1.04 ± 0.23
LTELETIYVTKEHLQETDVVRAMYRVLKNCPSVALKKKAKCLLSKWKA [V23M]	-0.087 ± 0.12
LTELETIYVTKEHLQETDVVRAPYRVLKNCPSVALKKKAKCLLSKWKA [V23P]	-0.833 ± 0.16
LTELETIYVTKEHLQETDVVRAVPRVLKNCPSVALKKKAKCLLSKWKA [Y24P]	-0.72 ± 0.17
LTELETIYVTKEHLQETDVVRAVDRVLKNCPSVALKKKAKCLLSKWKA [Y24D]	-0.217 ± 0.099
LTELETIYVTKEHLQETDVVRAVLRVLKNCPSVALKKKAKCLLSKWKA [Y24L]	0.205 ± 0.076
LTELETIYVTKEHLQETDVVRAVARVLKNCPSVALKKKAKCLLSKWKA [Y24A]	0.019 ± 0.078
LTELETIYVTKEHLQETDVVRAVRRVLKNCPSVALKKKAKCLLSKWKA [Y24R]	0.277 ± 0.066
LTELETIYVTKEHLQETDVVRAVNRVLKNCPSVALKKKAKCLLSKWKA [Y24N]	-0.362 ± 0.15
LTELETIYVTKEHLQETDVVRAVMRVLKNCPSVALKKKAKCLLSKWKA [Y24M]	0.315 ± 0.075
LTELETIYVTKEHLQETDVVRAVIRVLKNCPSVALKKKAKCLLSKWKA [Y24I]	0.105 ± 0.11
LTELETIYVTKEHLQETDVVRAVKRVLKNCPSVALKKKAKCLLSKWKA [Y24K]	0.219 ± 0.095
LTELETIYVTKEHLQETDVVRAVWRVLKNCPSVALKKKAKCLLSKWKA [Y24W]	0.406 ± 0.087
LTELETIYVTKEHLQETDVVRAVGRVLKNCPSVALKKKAKCLLSKWKA [Y24G]	-0.345 ± 0.068
LTELETIYVTKEHLQETDVVRAVCRVLKNCPSVALKKKAKCLLSKWKA [Y24C]	-0.003 ± 0.1
LTELETIYVTKEHLQETDVVRAVQRVLKNCPSVALKKKAKCLLSKWKA [Y24Q]	-0.223 ± 0.11
LTELETIYVTKEHLQETDVVRAVVRVLKNCPSVALKKKAKCLLSKWKA [Y24V]	0.11 ± 0.07
LTELETIYVTKEHLQETDVVRAVHRVLKNCPSVALKKKAKCLLSKWKA [Y24H]	-0.468 ± 0.16
LTELETIYVTKEHLQETDVVRAVFRVLKNCPSVALKKKAKCLLSKWKA [Y24F]	0.172 ± 0.13
